We go through 58 variants from the FLAb antibody collection (doi:10.7554/elife.23156).

Sequences and labels used below:
B1: scFv; the commonest letter at each place (parent)
chain 1: EVKLDETGGGLVQPGRPMKLSCVASGFTFSDYWMNWVRQSPEKGLEWVAQIRNKPYNYETYYSDSVKGRFTISRDDSKSSVYLQMNNLRVEDMGIYYCTGSYYGMDYWGQGTSVTVS
chain 2: DVVMTQTPLSLPVSLGDQASISCRSSQSLVHSNGNTYLRWYLQKPGQSPKVLIYKVSNRFSGVPDRFSGSGSGTDFTLKISRVEAEDLGVYFCSQSTHVPWTFGGGTKLEIK

A value given as a limit tells only on which side of the number the result lay.

The variants in the data set “fluorescein” derive from B1. Nature of the data set: Kd (Tite-Seq). As to conditions: with fluorescein; format: scFv 4-4-20, heavy + light.
In data set [1] the parent is B1. Nature of the data set: yeast surface expression (ratio to wild type); higher = more expressed. As to conditions: format: scFv 4-4-20, heavy + light.

The Kd is the equilibrium constant for the complex coming apart. In the case of chain 1 Y32F V37C, the Kd in the data set with fluorescein is 0.00142 µM. Further, the yeast surface expression in data set [1] turned out to be 0.914.

Take chain 1 Y32F V37I: the Kd with fluorescein is 0.0125 µM. Further, in data set [1], the yeast surface expression came to 0.835.

In the case of chain 1 Y102E Y103A, in the data set with fluorescein, the Kd amounted to 5.1 µM. Also, in data set [1], the yeast surface expression came to 0.993.

For the variant chain 1 Y102E Y103I, the Kd with fluorescein is ≥ 10 µM. Further, in data set [1], the yeast surface expression was 0.862.

Consider chain 1 Y32K W33I, for which the Kd with fluorescein was ≥ 10 µM. Further, the yeast surface expression in data set [1] amounted to 0.763.

Regarding chain 1 Y32K W33E, the dissociation constant Kd with fluorescein is ≥ 10 µM. Further, the yeast surface expression in data set [1] was 0.552.

Turning to chain 1 Y32K W33T, in the data set with fluorescein, the Kd was ≥ 10 µM. In addition, the yeast surface expression in data set [1] is 0.694.

On to chain 1 Y32P N35Y, for which the dissociation constant Kd in the data set with fluorescein is ≥ 10 µM. For the same variant, in data set [1], the yeast surface expression worked out at 0.488.

For the variant chain 1 Y32P N35K, in the data set with fluorescein, the Kd was found to be 0.195 µM. The yeast surface expression in data set [1] came to 0.466.

On to chain 1 Y102F G104Y W108D, for which the Kd with fluorescein was ≥ 10 µM. Also, the yeast surface expression in data set [1] came to 0.204.

With chain 1 Y32M W33D V37C, in the data set with fluorescein, the Kd was ≥ 10 µM. Besides, the yeast surface expression in data set [1] amounted to 0.778.

As for chain 1 Y32L W36Q, the Kd with fluorescein is ≥ 10 µM. In addition, the yeast surface expression in data set [1] came out at 0.875.

In the case of chain 1 Y32L W36Y, in the data set with fluorescein, the Kd came to 3.74 µM. In addition, in data set [1], the yeast surface expression was 0.682.

For chain 1 Y32L W36F, in the data set with fluorescein, the Kd was ≥ 10 µM. For the same variant, the yeast surface expression in data set [1] came out at 0.728.

For the variant chain 1 Y102F M105C W108T, in the data set with fluorescein, the Kd was ≥ 10 µM. For the same variant, in data set [1], the yeast surface expression turned out to be 0.419.

With chain 1 Y32W M34N, the Kd with fluorescein is 0.205 µM. The yeast surface expression in data set [1] came to 0.386.

On to chain 1 Y32W M34W, for which, in the data set with fluorescein, the Kd is ≥ 10 µM. Further, the yeast surface expression in data set [1] came to 0.838.

Consider chain 1 Y102A Y103E, for which the Kd with fluorescein is ≥ 10 µM. Moreover, the yeast surface expression in data set [1] is 1.23.

Turning to chain 1 Y102A Y103K, in the data set with fluorescein, the Kd worked out at 4.14 µM. Also, the yeast surface expression in data set [1] worked out at 1.15.

As to chain 1 Y32T W36R, the Kd in the data set with fluorescein is ≥ 10 µM. Further, the yeast surface expression in data set [1] was found to be 0.193.

For the variant chain 1 Y32K N35R, the Kd in the data set with fluorescein is ≥ 10 µM. For the same variant, the yeast surface expression in data set [1] amounted to 0.103.

Consider chain 1 Y32A M34E V37C, for which, in the data set with fluorescein, the Kd was ≥ 10 µM. Moreover, the yeast surface expression in data set [1] came to 0.299.

As for chain 1 Y32I W33T N35A, in the data set with fluorescein, the Kd is ≥ 10 µM. Further, the yeast surface expression in data set [1] amounted to 0.824.

For the variant chain 1 Y32G V37P, in the data set with fluorescein, the Kd was ≥ 10 µM. Moreover, in data set [1], the yeast surface expression came to 0.972.

As to chain 1 Y32S M34S V37M, in the data set with fluorescein, the dissociation constant Kd is ≥ 10 µM. Moreover, the yeast surface expression in data set [1] worked out at 0.65.

Regarding chain 1 Y102A, the dissociation constant (Kd) with fluorescein came out at 0.00162 µM. Besides, the yeast surface expression in data set [1] is 1.17.

For the variant chain 1 Y102G, the Kd with fluorescein stood at 1.91 µM. The yeast surface expression in data set [1] is 0.965.

chain 1 Y102F: the Kd with fluorescein was found to be 0.00309 µM. In data set [1], the yeast surface expression came out at 0.776.

As to chain 1 Y102C, the Kd with fluorescein amounted to 0.00334 µM. Besides, the yeast surface expression in data set [1] turned out to be 0.924.

For the variant chain 1 Y102D, in the data set with fluorescein, the dissociation constant Kd is ≥ 10 µM. In data set [1], the yeast surface expression worked out at 1.16.

With chain 1 Y102E, in the data set with fluorescein, the dissociation constant Kd is ≥ 10 µM. Moreover, the yeast surface expression in data set [1] was determined as 0.889.

Turning to chain 1 Y32H M34Q, in the data set with fluorescein, the Kd is ≥ 10 µM. Further, the yeast surface expression in data set [1] amounted to 0.862.

For chain 1 Y32H M34H, the Kd with fluorescein is ≥ 10 µM. Also, the yeast surface expression in data set [1] came to 0.674.

Consider chain 1 Y32S N35G V37K, for which the Kd with fluorescein was ≥ 10 µM. Besides, the yeast surface expression in data set [1] was determined as 0.649.

Take chain 1 Y32T N35P: in the data set with fluorescein, the Kd was ≥ 10 µM. Further, the yeast surface expression in data set [1] was 0.612.

Turning to chain 1 Y32Q W33V N35E, the Kd with fluorescein was determined as 7.72 µM. Moreover, the yeast surface expression in data set [1] amounted to 1.51.

chain 1 W108Q G109Q: the Kd in the data set with fluorescein is ≥ 10 µM. The yeast surface expression in data set [1] is 0.278.

Take chain 1 W108Q G109E: the dissociation constant (Kd) with fluorescein was ≥ 10 µM. In data set [1], the yeast surface expression came to 0.459.

For the variant chain 1 Y32R W33H W36S, the Kd with fluorescein is ≥ 10 µM. Moreover, the yeast surface expression in data set [1] came to 0.723.

Turning to chain 1 Y102E M105A, the Kd with fluorescein is ≥ 10 µM. Besides, the yeast surface expression in data set [1] amounted to 0.815.

Regarding chain 1 Y102E M105P, in the data set with fluorescein, the Kd was ≥ 10 µM. Further, the yeast surface expression in data set [1] turned out to be 0.839.

In the case of chain 1 Y102D Y107K G109H, in the data set with fluorescein, the Kd was ≥ 10 µM. In addition, in data set [1], the yeast surface expression amounted to 0.302.

chain 1 Y32I W36G: the Kd with fluorescein was ≥ 10 µM. In addition, in data set [1], the yeast surface expression worked out at 0.465.

Take chain 1 Y32I W36P: the Kd with fluorescein turned out to be 0.0391 µM. In data set [1], the yeast surface expression came out at 0.723.

Take chain 1 Y32I W36Y: the Kd with fluorescein is ≥ 10 µM. Moreover, in data set [1], the yeast surface expression worked out at 0.612.

As to chain 1 Y32M W36D, in the data set with fluorescein, the Kd is ≥ 10 µM. The yeast surface expression in data set [1] came to 0.63.

With chain 1 Y32M W36M, the Kd in the data set with fluorescein was ≥ 10 µM. For the same variant, the yeast surface expression in data set [1] was found to be 0.672.

As to chain 1 Y32H N35E, the Kd with fluorescein was ≥ 10 µM. For the same variant, the yeast surface expression in data set [1] is 0.518.

As to chain 1 Y32H N35T, the Kd in the data set with fluorescein was ≥ 10 µM. In addition, in data set [1], the yeast surface expression was determined as 0.813.

As for chain 1 Y32H N35Q, the Kd with fluorescein is ≥ 10 µM. Further, in data set [1], the yeast surface expression worked out at 0.811.

In the case of chain 1 Y32H N35D, the Kd in the data set with fluorescein was ≥ 10 µM. In addition, in data set [1], the yeast surface expression is 0.772.

As to chain 1 Y32F M34Q, in the data set with fluorescein, the Kd is ≥ 10 µM. The yeast surface expression in data set [1] came out at 0.502.

For chain 1 Y32F M34F, the Kd with fluorescein came out at 0.00561 µM. The yeast surface expression in data set [1] is 0.862.

For chain 1 Y32F M34L, the Kd with fluorescein was 0.0221 µM. Further, the yeast surface expression in data set [1] was 0.781.

With chain 1 Y32I N35P, in the data set with fluorescein, the Kd was ≥ 10 µM. Moreover, in data set [1], the yeast surface expression worked out at 0.0981.

On to chain 1 Y32F W33Q, for which the Kd with fluorescein was ≥ 10 µM. The yeast surface expression in data set [1] was found to be 1.23.

For the variant chain 1 Y32F W33Y, the Kd with fluorescein is ≥ 10 µM. In data set [1], the yeast surface expression turned out to be 0.757.

For chain 1 Y32E M34I, the equilibrium dissociation constant (Kd) in the data set with fluorescein is ≥ 10 µM. Further, the yeast surface expression in data set [1] came to 0.733.
